“And” between values parts separate entries of the source, which are not always exact repeats. Equal entries are not always repeated.
How the values were obtained:
FtsZ-YFP-mts [1] = target: T1, FtsZ-YFP-mts (Escherichia coli, UniProt P0A9A6); parameters: made in house; host or cells: E. coli BL21(DE3) for the wild type; details: 0.5 μM protein, 4 mM GTP
Procedure: 1,2-dioleoyl-sn-glycero-3-phosphocholine (DOPC):1,2-dioleoyl-sn-glycero-3-phospho-(1’-rac-glycerol) (DOPG), 70:30 mol % mixture, was dissolved in chloroform in a quartz container, then dehumidified under a gas nitrogen stream. Chloroform traces were further removed through desiccation (1 h). Afterwards, the lipid film was hydrated to a final concentration of 4 mg/ml in supported lipid bilayers (SLB) buffer (50 mM Tris-HCl at pH 7.5, 150 mM KCl), and incubated at 37 °C for 30 min. The lipid film was then completely resuspended by vortexing rigorously to obtain multilamellar vesicles of different sizes. This mixture was then placed in a bath sonicator where shear forces help to reduce the size of the vesicles, giving rise to small unilamellar vesicles (SUVs). The SUV dispersion were stored at −20 °C as 20 µl aliquots.
Glass coverslips (1.5#, 24 x 24 mm) were cleaned by piranha solution overnight, followed by extensive washing with milliQ H2O. Then glass coverslips were blown dry with compressed air. The reaction chamber was prepared by attaching a plastic ring on a cleaned glass coverslip using ultraviolet glue (Thorlabs No. 68). For supported lipid bilayer formation, the SUV dispersion was diluted in SLB buffer to 0.5 mg/ml, of which 75 µl was added to the reaction chamber. Adding CaCl2 to a final concentration of 3 mM induced fusion of the vesicles and the formation of a lipid bilayer on coversilde. After 20 min of incubation at 37 °C, the sample was rinsed with 2 ml pre-warmed SLB buffer.
Polymerization was induced by adding 4 mM GTP.
The UltimateFocus feature of DeltaVision Elite maintains the focus plane constant in time. […] Fluorescence imaging was performed using a standard FITC filter set. Images were acquired with a PCO sCMOS 5.5 camera (PCO, Germany) controlled by the softWoRx Software (GE Healthcare Life Sciences, Germany). For time-lapse experiments, images were acquired every 3 s with a 0.05 s exposure time and light illumination shuttered between acquisitions.

FtsZ-YFP-mts [2] = details: on SLB; mean ± SD
Procedure: (§1) Images corresponded to an average of 5–10 frames from a time-series experiment. For the kymograph analysis, time-series acquisitions were filtered using a standard mean filter (2 pixel) and were drift corrected (multistackreg plugin). A MATLAB script allowed the user to define a ring by providing two coordinates. Every ring was automatically fitted to a circle with radius r. Then, three trajectories corresponding to three concentric circles having radii r, r + 1, and r − 1 pixels were determined. At this point, the script read the time-series data and calculated a kymograph for each time point and trajectory. To automatically calculate the slope, the kymograph was smoothed with a Savitzky-Golay filter of order 2 and enhance its contrast using a contrast-limited-adaptive-histogram-equalization (CLAHE) routine (MATLAB). Next, using Fourier analysis from previous study, the characteristic frequency for the patterns on the kymograph was found. Finally, the slope corresponded to the change in phase at this frequency. Quality criteria were properly chosen to reject low-quality regions over the kymograph. To synchronize time-lapse acquisitions, the initial frame (time 0) was defined when surface mean intensity was around 200 A.U.

FtsZ-YFP-mts [3] = target: T1, FtsZ-YFP-mts; details: on SLB; slope of kymographs
Procedure: as §1

FtsZ-YFP-mts [4] = target: T1, FtsZ-YFP-mts; format: biochemical; parameters: made in house; host or cells: E. coli BL21(DE3) for the wild type; details: 5 μM protein, 1 mM GTP
Procedure: Reactions were performed every 20 s for a total time of 120 s. After 30 min of incubation with BIOMOL® GREEN at room temperature, the absorbance of the samples at 620 nm was monitored by TECAN plate reader. The phosphate release concentrations were calculated based on a phosphate standard curve.

FtsZ-YFP-mts [5] = target: T1, FtsZ-YFP-mts; details: total protein 0.5 µM
Procedure: The final volume of a sample was approximately 250 μl. […] Polymerization was induced by adding 4 mM GTP.

FtsZ-YFP-mts [6] = details: FRAP
Procedure: (§2) Fluorescence recovery after photobleaching data (FRAP) on the SLB were evaluated by choosing two separately circle areas (r = 4 µm). One circle was taken as a reference. Another one was photobleached by 20 iterations of 488 nm, laser under 100% laser power. Their fluorescence recovery in the green channel was monitored. Intensity traces were collected using Fiji, corrected for photobleaching and normalized with the pre-bleaching intensity and the reference intensity. The fluorescence recovery curves were then fitted with mono-exponential equation using Originpro (v_2017 & v_2019):1 Y=Ae^−kt+B, where Y represents fluorescence intensity at time t, A and B are parameters, and k represents the rate constant. The half-life, t1/2, was determined using the following equation:2 t1/2=ln2k^−1

FtsZ-YFP-mts [7] = target: T1, FtsZ-YFP-mts; details: on SLB; n = 6
Procedure: as §2

B1: Wild type FtsZ-YFP-mts: truncated FtsZ(1-366) fused with yellow fluorescent protein (YFP) and a membrane-targeting sequence (mts) (protein)
chain: MFEPMELTNDAVIKVIGVGGGGGNAVEHMVRERIEGVEFFAVNTDAQALRKTAVGQTIQIGSGITKGLGAGANPEVGRNAADEDRDALRAALEGADMVFIAAGMGGGTGTGAAPVVAEVAKDLGILTVAVVTKPFNFEGKKRMAFAEQGITELSKHVDSLITIPNDKLLKVLGRGISLLDAFGAANDVLKGAVQGIAELITRPGLMNVDFADVRTVMSEMGYAMMGSGVASGEDRAEEAAEMAISSPLLEDIDLSGARGVLVNITAGFDLRLDEFETVGNTIRAFASDNATVVIGTSLDPDMNDELRVTVVATGIGMDKRPEITLVTNKQVQQPVMDRYQQHGMAPLTQEQKPVAKVVNDNAPQTA
modifications: left off: YFP, end not stated, kept | mts (membrane-targeting sequence), end not stated, kept
With B1 the “Ring pattern formation on supported lipid bilayer” value (FtsZ-YFP-mts [1]; TIRFM) was “homogeneous treadmilling ring pattern”, the Average ring diameter (FtsZ-YFP-mts [1]; on SLB, mean ± SD) was 0.80 ± 0.18 μm and the Treadmilling velocity (FtsZ-YFP-mts [2]) was 21.63 ± 5.11 nm/s. For the same molecule, the “Mean rotation (treadmilling) velocity” value (FtsZ-YFP-mts [3]) was 21.63 ± 5.11 nm/s, the “GTPase activity, Average” value (FtsZ-YFP-mts [4]; average of two repeats) was 7.3492 pi/min and the “GTPase activity, single repeats” value (FtsZ-YFP-mts [4]; repeat 1 and repeat 2) was 7.7984 pi/min and 6.9 pi/min. The “Phosphate at Time 0.3 min” value (FtsZ-YFP-mts [4]; time 0.3 min, repeats 1 and 2) was 6.378 µM and 10.2373 µM, the “Phosphate at Time 0.7 min” value (FtsZ-YFP-mts [4]; time 0.7 min, repeats 1 and 2) was 8.111 µM and the “Phosphate at Time 1 min” value (FtsZ-YFP-mts [4]; time 1 min, repeats 1 and 2) was 13.7966 µM and 9.644 µM. For the same molecule, the “Phosphate at Time 2 min” value (FtsZ-YFP-mts [4]; time 2 min, repeats 1 and 2) was 19.8222 µM and 22.4068 µM, the “Ring density, Average” value (FtsZ-YFP-mts [5]; average of three repeats) was 144248 µm−2 and the “Ring density, single repeats” value (FtsZ-YFP-mts [5]; repeats 1-3, listed as 0 Cl2Y) was 133565 µm−2 and 142057 µm−2 and 157123 µm−2. The Ring density (FtsZ-YFP-mts [5]; stated percentage of Cl2Y modified variant) was 1.44 (±0.12) × 10^5 µm^−2, the “half time, ave” value (FtsZ-YFP-mts [6]; average of the three measurements (stdev in the row below), Fig. 2h) was 4.974 s and the half time (FtsZ-YFP-mts [6]; individual measurements, source data of Fig. 2h) was 4.866 s and 5.251 s and 4.806 s. The FRAP half-time (FtsZ-YFP-mts [7]) was 4.97 ± 0.24 s.
